Results on 2 molecules are retold here after US20040014178A1 (published 2004).

Assay [1] concerns the target T1, human recombinant von Willebrand factor (human, UniProt P04275 764-2813).
T1 construct: also called rvWf; rvWF
As to the kind of experiment: phagemid clone isolated by panning the S. lugdunensis library against vWF.

In assay [2] the target is T1, human recombinant von Willebrand factor. As to the kind of experiment: blot of vWb on nitrocellulose probed with 125I-labelled vWF.

B1: phagemid clone SlvW2 (vWbl fragment displayed on phagemid particles) (other)
chain: GNEVQETEEGTHDAPGIIGDKWQYTGQTTTEDGITTHIYQRIQSEIPNEAPQETPVALEVTRYVDSEGN
Regarding B1, the binding result in assay [1] is listed as “binds”.

B2: vWb (von Willebrand factor binding protein) from S. aureus, wild type secreted protein (other)
chain: VVSGEKNPYVSESLKLTNNKNKSRTVEEYKKSLDDLIWSFPNLDNERFDNPEYKEAMKKYQQRFMAEDEALKKFFSEEKKIKNGNTDNLDYLGLSHERYESVFNTLKKQSEEFLKEIEDIKKDNPELKDFNEEEQLKCDLELNKLENQILMLGKTFYQNYRDDVESLYSKLDLIMGYKDEERANKKAVNKRMLENKKEDLETIIDEFFSDIDKTRPNNIPVLEDEKQEEKNHKNMAQLKSDTEAAKSDESKRSKRSKRSLNTQNHKPASQEVSEQQKAEYDKRAEERKARFLDNQKIKKTPVVSLEYDFEHKQRIDNENDKKLVVSAPTKKPTSPTTYTETTTQVPMPTVERQTQQQIIYNAPKQLAGLNGESHDFTTTHQSPTTSNHTHNNVVEFEETSALPGRKSGSLVGISQIDSSHLTEREKRVIKREHVREAQKLVDNYKDTHSYKDRINAQQKVNTLSEGHQKRFNKQINKVYNGK
notes: Purified from the culture supernatant of S. aureus Newman with the Eap gene deleted; also called wild type vWb; purified secreted vWb protein
On to B2, for which the binding result in assay [2] is “binds”.
